Test results reported in publication PMC4558565.

B1: bZIP63 (protoplast two-hybrid fusion) [Arabidopsis thaliana] / bZIP63 (protoplast two-hybrid fusion) [Arabidopsis thaliana] (parent)
chain 1: MEKVFSDEEISGNHHWSVNGMTSLNRSASEWAFNRFIQESSAAADDGESTTACGVSVSSPPNVPVDSEEYRAFLKSKLNLACAAVAMKRGTFIKPQDTSGRSDNGGANESEQASLASSKATPMMSSAITSGSELSGDEEEADGETNMNPTNVKRVKRMLSNRESARRSRRRKQAHLSELETQVSQLRVENSKLMKGLTDVTQTFNDASVENRVLKANIETLRAKVKMAEETVKRLTGFNPMFHNMPQIVSTVSLPSETSNSPDTTSSQVTTPEIISSGNKGKALIGCKMNRTASMRRVESLEHLQKRIRSVGDQ
chain 2: B1 chain 1
B2: bZIP63 (protoplast two-hybrid fusion) [Arabidopsis thaliana] / bZIP11 (protoplast two-hybrid fusion) [Arabidopsis thaliana] (parent)
chain 1: B1 chain 1
chain 2: MESSSSGTTSSTIQTSSGSEESLMEQRKRKRMLSNRESARRSRMKKQKLLDDLTAQVNHLKKENTEIVTSVSITTQHYLTVEAENSVLRAQLDELNHRLQSLNDIIEFLDSSNNNNNNNMGMCSNPLVGLECDDFFVNQMNMSYIMNQPLMASSDALMY

Assays:
[1] = variants of: B1; test: protoplast two-hybrid (P2H) assay; settings: for response (% of signal with wt bZIP63 and AKIN10): - AKIN10 (no co-transformation), parent: 13, read off a plot; for percent of parent: with bZIP63 (protoplast two-hybrid fusion) [Arabidopsis thaliana], + AKIN10 co-transformation, parent: 100, read off a plot
[2] = variants of: B2; test: protoplast two-hybrid (P2H) assay; settings: for response (% of signal with wt bZIP63 and AKIN10): - AKIN10 (no co-transformation), parent: 8, read off a plot; for percent of parent: with bZIP11 (protoplast two-hybrid fusion) [Arabidopsis thaliana], + AKIN10 co-transformation, parent: 100, read off a plot

Variant | response (% of signal with wt bZIP63 and AKIN10) [1] | percent of parent [1] | response (% of signal with wt bZIP63 and AKIN10) [2] | percent of parent [2]
chain 1 MEKVFSDEEISGNHHWSVNGMTSLNRSASEWAFNRFIQESSAAADDGESTTACGVSVSSPPNVPVDSEEYRAFLKSKLNLACAAVAMKRGTFIKPQDTSGRSDNGGANESEQASLASSKATPMMSSAITSGSELSGDEEEADGETNMNPTNVKRVKRMLSNRESARRSRRRKQAHLSELETQVSQLRVENSKLMKGLTDVTQTFNDASVENRVLKANIETLRAKVKMAEETVKRLTGFNPMFHNMPQIVSTVSLPSETSNSPDTTSSQVTTPEIISSGNKGKALIGCKMNRTAAMRRVESLEHLQKRIRSVGDQ [chain 1 S294A] | 10 | 75% |  | 
chain 1 MEKVFSDEEISGNHHWSVNGMTSLNRSAAEWAFNRFIQESSAAADDGESTTACGVSVSSPPNVPVDSEEYRAFLKSKLNLACAAVAMKRGTFIKPQDTSGRSDNGGANESEQASLASSKATPMMSSAITSGSELSGDEEEADGETNMNPTNVKRVKRMLSNRESARRSRRRKQAHLSELETQVSQLRVENSKLMKGLTDVTQTFNDASVENRVLKANIETLRAKVKMAEETVKRLTGFNPMFHNMPQIVSTVSLPSETSNSPDTTSSQVTTPEIISSGNKGKALIGCKMNRTAAMRRVEALEHLQKRIRSVGDQ [chain 1 S29A S294A S300A] | 11 |  |  | 
chain 1 MEKVFSDEEISGNHHWSVNGMTSLNRSAAEWAFNRFIQESSAAADDGESTTACGVSVSSPPNVPVDSEEYRAFLKSKLNLACAAVAMKRGTFIKPQDTSGRSDNGGANESEQASLASSKATPMMSSAITSGSELSGDEEEADGETNMNPTNVKRVKRMLSNRESARRSRRRKQAHLSELETQVSQLRVENSKLMKGLTDVTQTFNDASVENRVLKANIETLRAKVKMAEETVKRLTGFNPMFHNMPQIVSTVSLPSETSNSPDTTSSQVTTPEIISSGNKGKALIGCKMNRTASMRRVESLEHLQKRIRSVGDQ [chain 1 S29A] | 7 | 44% |  | 
chain 1 MEKVFSDEEISGNHHWSVNGMTSLNRSAAEWAFNRFIQESSAAADDGESTTACGVSVSSPPNVPVDSEEYRAFLKSKLNLACAAVAMKRGTFIKPQDTSGRSDNGGANESEQASLASSKATPMMSSAITSGSELSGDEEEADGETNMNPTNVKRVKRMLSNRESARRSRRRKQAHLSELETQVSQLRVENSKLMKGLTDVTQTFNDASVENRVLKANIETLRAKVKMAEETVKRLTGFNPMFHNMPQIVSTVSLPSETSNSPDTTSSQVTTPEIISSGNKGKALIGCKMNRTAAMRRVEALEHLQKRIRSVGDQ [chain 1 S29A S294A S300A] |  |  | 7.5 | 27%
chain 1 MEKVFSDEEISGNHHWSVNGMTSLNRSAAEWAFNRFIQESSAAADDGESTTACGVSVSSPPNVPVDSEEYRAFLKSKLNLACAAVAMKRGTFIKPQDTSGRSDNGGANESEQASLASSKATPMMSSAITSGSELSGDEEEADGETNMNPTNVKRVKRMLSNRESARRSRRRKQAHLSELETQVSQLRVENSKLMKGLTDVTQTFNDASVENRVLKANIETLRAKVKMAEETVKRLTGFNPMFHNMPQIVSTVSLPSETSNSPDTTSSQVTTPEIISSGNKGKALIGCKMNRTASMRRVESLEHLQKRIRSVGDQ [chain 1 S29A] |  |  | 11 | 32%

Next, values leading:

response (% of signal with wt bZIP63 and AKIN10) [1] | percent of parent [1] | response (% of signal with wt bZIP63 and AKIN10) [2] | percent of parent [2] | Variant
10 | 67% |  |  | chain 1 MEKVFSDEEISGNHHWSVNGMTSLNRSASEWAFNRFIQESSAAADDGESTTACGVSVSSPPNVPVDSEEYRAFLKSKLNLACAAVAMKRGTFIKPQDTSGRSDNGGANESEQASLASSKATPMMSSAITSGSELSGDEEEADGETNMNPTNVKRVKRMLSNRESARRSRRRKQAHLSELETQVSQLRVENSKLMKGLTDVTQTFNDASVENRVLKANIETLRAKVKMAEETVKRLTGFNPMFHNMPQIVSTVSLPSETSNSPDTTSSQVTTPEIISSGNKGKALIGCKMNRTAAMRRVEALEHLQKRIRSVGDQ [chain 1 S294A S300A]
8 | 79% |  |  | chain 1 MEKVFSDEEISGNHHWSVNGMTSLNRSASEWAFNRFIQESSAAADDGESTTACGVSVSSPPNVPVDSEEYRAFLKSKLNLACAAVAMKRGTFIKPQDTSGRSDNGGANESEQASLASSKATPMMSSAITSGSELSGDEEEADGETNMNPTNVKRVKRMLSNRESARRSRRRKQAHLSELETQVSQLRVENSKLMKGLTDVTQTFNDASVENRVLKANIETLRAKVKMAEETVKRLTGFNPMFHNMPQIVSTVSLPSETSNSPDTTSSQVTTPEIISSGNKGKALIGCKMNRTASMRRVEALEHLQKRIRSVGDQ [chain 1 S300A]
 |  | 13 | 100% | chain 1 MEKVFSDEEISGNHHWSVNGMTSLNRSASEWAFNRFIQESSAAADDGESTTACGVSVSSPPNVPVDSEEYRAFLKSKLNLACAAVAMKRGTFIKPQDTSGRSDNGGANESEQASLASSKATPMMSSAITSGSELSGDEEEADGETNMNPTNVKRVKRMLSNRESARRSRRRKQAHLSELETQVSQLRVENSKLMKGLTDVTQTFNDASVENRVLKANIETLRAKVKMAEETVKRLTGFNPMFHNMPQIVSTVSLPSETSNSPDTTSSQVTTPEIISSGNKGKALIGCKMNRTASMRRVEALEHLQKRIRSVGDQ [chain 1 S300A]
 |  | 10 | 110% | chain 1 MEKVFSDEEISGNHHWSVNGMTSLNRSASEWAFNRFIQESSAAADDGESTTACGVSVSSPPNVPVDSEEYRAFLKSKLNLACAAVAMKRGTFIKPQDTSGRSDNGGANESEQASLASSKATPMMSSAITSGSELSGDEEEADGETNMNPTNVKRVKRMLSNRESARRSRRRKQAHLSELETQVSQLRVENSKLMKGLTDVTQTFNDASVENRVLKANIETLRAKVKMAEETVKRLTGFNPMFHNMPQIVSTVSLPSETSNSPDTTSSQVTTPEIISSGNKGKALIGCKMNRTAAMRRVEALEHLQKRIRSVGDQ [chain 1 S294A S300A]
 |  | 7 | 110% | chain 1 MEKVFSDEEISGNHHWSVNGMTSLNRSASEWAFNRFIQESSAAADDGESTTACGVSVSSPPNVPVDSEEYRAFLKSKLNLACAAVAMKRGTFIKPQDTSGRSDNGGANESEQASLASSKATPMMSSAITSGSELSGDEEEADGETNMNPTNVKRVKRMLSNRESARRSRRRKQAHLSELETQVSQLRVENSKLMKGLTDVTQTFNDASVENRVLKANIETLRAKVKMAEETVKRLTGFNPMFHNMPQIVSTVSLPSETSNSPDTTSSQVTTPEIISSGNKGKALIGCKMNRTAAMRRVESLEHLQKRIRSVGDQ [chain 1 S294A]
